Data set [1] deals with T1, papain (cysteine protease) (UniProt P00784).
T1 sequence (looked up): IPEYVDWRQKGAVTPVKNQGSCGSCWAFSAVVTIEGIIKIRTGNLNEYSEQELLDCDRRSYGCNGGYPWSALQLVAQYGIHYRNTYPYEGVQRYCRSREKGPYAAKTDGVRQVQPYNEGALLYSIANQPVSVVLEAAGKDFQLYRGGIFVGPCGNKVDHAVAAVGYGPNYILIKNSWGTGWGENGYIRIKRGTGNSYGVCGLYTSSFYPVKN
Put plainly: phage ELISA, papain coated in well, phage diluted 1 in 100, anti-M13/HRP detection.

Data set [2] has as its target trypsin (serine protease). Put plainly: phage ELISA, trypsin coated in well, phage diluted 1 in 100, anti-M13/HRP detection.
In data set [3] the target is T2, OV7/GST (cysteine protease inhibitor OV7 conjugated to GST), P22085.
T2 chain: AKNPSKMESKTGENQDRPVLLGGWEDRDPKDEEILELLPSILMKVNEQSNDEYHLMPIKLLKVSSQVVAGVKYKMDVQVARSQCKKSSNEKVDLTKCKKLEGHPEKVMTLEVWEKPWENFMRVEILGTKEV

In data set [4] the target is T3, POV-1 protein: Brassica napus Sta 44G(2) / Onchocerca volvulus OV7 protease inhibitor translational fusion, P22085.
T3 chain: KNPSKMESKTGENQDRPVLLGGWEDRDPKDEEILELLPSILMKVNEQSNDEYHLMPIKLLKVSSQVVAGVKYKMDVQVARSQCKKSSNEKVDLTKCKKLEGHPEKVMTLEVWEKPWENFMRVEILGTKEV

The target in data set [5] is POP-1 protein: Brassica napus Sta 44G(2) / Sitophilus zeamais SCPc1 protease translational fusion (Brassica napus; Sitophilus zeamais). The data set can be described thus: cell-based or functional assay.
The target in data set [6] is T1, papain (cysteine protease). The data set can be described thus: cell-based or functional assay.

These results are taken from patent US20030182691A1.

As to “M13 wild type or control phage not displaying any foreign protein”, the O.D.410 (O.D. at 410 nm) was 0.043 in data set [1] and 0.026 in data set [2].

B1: papain (cysteine protease) (protein)
chain: IPEYVDWRQKGAVTPVKNQGSCGSCWAFSAVVTIEGIIKIRTGNLNEYSEQELLDCDRRSYGCNGGYPWSALQLVAQYGIHYRNTYPYEGVQRYCRSREKGPYAAKTDGVRQVQPYNEGALLYSIANQPVSVVLEAAGKDFQLYRGGIFVGPCGNKVDHAVAAVGYGPNYILIKNSWGTGWGENGYIRIKRGTGNSYGVCGLYTSSFYPVKN
For the molecule B1, the “percentage of papain protease activity (substrate Pyr-Phe-Leu-pNA, 410 nm) relative to the non-transformed control plant extract” value was 2% in data set [3] and 53% to 61% in data set [4].

B2: POV-1 protein: Brassica napus Sta 44G(2) / Onchocerca volvulus OV7 protease inhibitor translational fusion (protein)
chain: KNPSKMESKTGENQDRPVLLGGWEDRDPKDEEILELLPSILMKVNEQSNDEYHLMPIKLLKVSSQVVAGVKYKMDVQVARSQCKKSSNEKVDLTKCKKLEGHPEKVMTLEVWEKPWENFMRVEILGTKEV
For B2, in data set [5], the Percent Loss of Viability (Alexander staining of pollen, F1 plant POP 2 X POV 20 No. 2) was 19%; the Percent Loss of Viability (Alexander staining of pollen, F1 plant POP 2 X POV 20 No. 3) amounted to 21%; the Percent Loss of Viability (Alexander staining of pollen, F1 plant POP 12 X POV 20 No. 1) was determined as 66%; the Percent Loss of Viability (Alexander staining of pollen, F1 plant POP 12 X POV 20 No. 4) is 58%. Besides, in data set [5], the Percent Loss of Viability (Alexander staining of pollen, F1 plant POP 12 X POV 25 No. 1) amounted to 26% and the Percent Loss of Viability (Alexander staining of pollen, F1 plant POP 12 X POV 25 No. 2) stood at 19%.

B3: recombinant onchocystatin (OV7), cysteine protease inhibitor (protein)
chain: AKNPSKMESKTGENQDRPVLLGGWEDRDPKDEEILELLPSILMKVNEQSNDEYHLMPIKLLKVSSQVVAGVKYKMDVQVARSQCKKSSNEKVDLTKCKKLEGHPEKVMTLEVWEKPWENFMRVEILGTKEV
In the case of B3, in data set [6], the Average Pollen Tube Length (tobacco pollen in vitro, 42 µM papain + 30 µM onchocystatin) was 80 µm and the Pollen Germination (tobacco pollen in vitro, 42 µM papain + 30 µM onchocystatin) turned out to be 69%.
